System: protein tyrosine kinase activity
Assay: Protein tyrosine kinase ELISA on extracts of β-APP-transfected ES double-null cells mixed with PS-1-transfected DAMI cells
Format: cell-based
Details: 25 μg protein added, 0-20 min after mixing
Procedure: DAMI:ES cells: Equal numbers (0.5×10^6/ml) of β-APP 695 (Selkoe and Podlisny, 2002)-transfected ES double-null cells and PS-1 transfected DAMI cells were co-cultured at 37° C. for various times between 0-20 mins.
At several times between 0 and 20 min after mixing, an aliquot of each cell mixture was rapidly centrifuged, the culture medium was removed, and the cell pellet was suspended in 200 μl of extraction buffer (50 mM Tris, pH 8.0/150 mM NaCl/0.5% Nonidet-P40) containing protease inhibitors (1 mM 4-(2-aminoethyl) benzene sulfonyl fluoride hydrochloride (AEBSF)/1 μg/ml antipain/0.1 μg/ml pepstatin A/0.1 μg/ml leupeptin) and the phosphatase inhibitor sodium orthovanadate (0.1 mM). The mixture was sonicated with three bursts of 20 sec duration and then centrifuged. These extract supernatants were then used for Western blot and ELISA analyses as described below.
ELISAs Protein tyrosine kinase activity was measured by an Enzyme Linked Immunosorbent Assay (ELISA) using a tyrosine kinase assay kit (Upstate Biotechnology). A biotinylated substrate peptide containing tandem repeats of Poly (Glu4-Tyr) was incubated with supernatants of extracts of transfected cells mixed for different times ([…]) in the presence of non-radioactive ATP and a Mn^2+/Mg^2+ co-factor cocktail according to the manufacturer's protocols. […]

B1: N-terminal domain of PS-2 fused to FLAG: fusion protein with FLAG attached at the N-terminus of the PS-2 N-terminal domain (protein)
chain: MLTFMASDSEEEVCDERTSLMSAESPTPRSCQEGRQGPEDGENTAQWRSQENEEDGEEDPDRYVCSGVPGRPPGLEEELTLKYGAKH
modifications: left off: small tags and cut ends
notes: fusion protein with FLAG attached at the N-terminus of the PS-2 N-terminal domain
- transient increase in protein tyrosine kinase activity after cell mixing: very similar transient increases
- transient increase in protein tyrosine kinase activity after cell mixing (listed as FLAG-PS-2 N-terminal domain fusion peptide): did not inhibit
